Reference: the supplement of paper PMC10567573

B1: FAM189A2 (parent)
chain: PRCDLVDLGEGKICFCCEEFQPAK

Variants of: B1
Assay: protein stability index of a GFP-peptide fusion (GPS, HEK-293T) (PSI 1-6); higher = more stable
Details: c terminus: a fixed tail appended
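Note: lentivirally expressed fusions sorted by FACS into six bins by GFP to DsRed ratio, PSI derived from sequencing read proportions per bin multiplied by bin number.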

Variant	protein stability index
PRCDLVDLAEGKICFCCEEFQPAK [G9A]	2.9
PRCDLVDLCEGKICFCCEEFQPAK [G9C]	2.91
PRCDLVDLREGKICFCCEEFQPAK [G9R]	2.14
PRCDLVDLFEGKICFCCEEFQPAK [G9F]	1.77
PRCDLVDLVEGKICFCCEEFQPAK [G9V]	2.52
PRCDLVDLDEGKICFCCEEFQPAK [G9D]	3.18
PRCDLVDLNEGKICFCCEEFQPAK [G9N]	2.28
PRCDLVDLGEGKICCCCEEFQPAK [F15C]	3.86
PRCDLVDLGEGKICECCEEFQPAK [F15E]	4.19
PRCDLVDLGEGKICDCCEEFQPAK [F15D]	4.74
PRCDLVDLGEGKICICCEEFQPAK [F15I]	2.38
PRCDLVDLGEGKICKCCEEFQPAK [F15K]	4.07
PRCDLVDLGEGKICNCCEEFQPAK [F15N]	4.66
PRCDLVDLGEGKICPCCEEFQPAK [F15P]	3.55
PRCDLVDLGEGKICTCCEEFQPAK [F15T]	4.07
PRCDLVDLGEGKICHCCEEFQPAK [F15H]	3.77
PRCDLVDLGEGKICGCCEEFQPAK [F15G]	3.79
PRCDLVDLGEGKICYCCEEFQPAK [F15Y]	2.81
PRCDLVDLGEGKDCFCCEEFQPAK [I13D]	4.28
PRCDLVDLGEGKWCFCCEEFQPAK [I13W]	2.11
PRCDLVDLGEGKLCFCCEEFQPAK [I13L]	2.72
PRCDLVDLGEGKACFCCEEFQPAK [I13A]	3.01
PRCDLVDLGEGKKCFCCEEFQPAK [I13K]	3.71
PRCDLSDLGEGKICFCCEEFQPAK [V6S]	3.21

Variant	protein stability index
PRCDLTDLGEGKICFCCEEFQPAK [V6T]	2.98
PRCDLWDLGEGKICFCCEEFQPAK [V6W]	2.28
PRCDLMDLGEGKICFCCEEFQPAK [V6M]	2.65
PRCDLRDLGEGKICFCCEEFQPAK [V6R]	3.4
PRCDLADLGEGKICFCCEEFQPAK [V6A]	3.49
PRCDLCDLGEGKICFCCEEFQPAK [V6C]	4.15
PRCDLNDLGEGKICFCCEEFQPAK [V6N]	3.71
PRCDLVDLGNGKICFCCEEFQPAK [E10N]	2.65
PRCDLVDLGMGKICFCCEEFQPAK [E10M]	2.01
PRCDLVDLGLGKICFCCEEFQPAK [E10L]	2.08
PRCDLVDLGIGKICFCCEEFQPAK [E10I]	2.08
PRCDLVDLGTGKICFCCEEFQPAK [E10T]	2.75
PRCDLVDLGHGKICFCCEEFQPAK [E10H]	2.88
PRCDLVDLGDGKICFCCEEFQPAK [E10D]	3
PRPDLVDLGEGKICFCCEEFQPAK [C3P]	2.89
PRDDLVDLGEGKICFCCEEFQPAK [C3D]	3.53
PRQDLVDLGEGKICFCCEEFQPAK [C3Q]	3.26
PRLDLVDLGEGKICFCCEEFQPAK [C3L]	2.97
PRYDLVDLGEGKICFCCEEFQPAK [C3Y]	1.91
PRKDLVDLGEGKICFCCEEFQPAK [C3K]	3.07
PRADLVDLGEGKICFCCEEFQPAK [C3A]	2.01
PRVDLVDLGEGKICFCCEEFQPAK [C3V]	3.33
PRMDLVDLGEGKICFCCEEFQPAK [C3M]	2.3
PRCDLVDLGEGDICFCCEEFQPAK [K12D]	3.4

Variant	protein stability index
PRCDLVDLGEGYICFCCEEFQPAK [K12Y]	2.42
PRCDLVDLGEGTICFCCEEFQPAK [K12T]	2.63
PRCDLVDLGEGLICFCCEEFQPAK [K12L]	2.42
PRCDLVDLGEGNICFCCEEFQPAK [K12N]	2.7
PRCDLVDLGEGPICFCCEEFQPAK [K12P]	3.25
PRCDLVDLGEGKICFCCEEFQPGK [A23G]	2.72
PRCDLVDLGEGKICFCCEEFQPPK [A23P]	2.44
PRCDLVDLGEGKICFCCEEFQPMK [A23M]	1.96
PRCDLVDLGEGKICFCCEEFQPVK [A23V]	3.29
PRCDLVDLGEGKIYFCCEEFQPAK [C14Y]	2.46
PRCDLVDLGEGKIMFCCEEFQPAK [C14M]	2.87
PRCDLVDLGEGKILFCCEEFQPAK [C14L]	3.15
PRCDLVDLGEGKIGFCCEEFQPAK [C14G]	3.56
PRCDLVDLGEGKIRFCCEEFQPAK [C14R]	3.51
PRCYLVDLGEGKICFCCEEFQPAK [D4Y]	1.86
PRCRLVDLGEGKICFCCEEFQPAK [D4R]	3.56
PRCWLVDLGEGKICFCCEEFQPAK [D4W]	1.16
PRCKLVDLGEGKICFCCEEFQPAK [D4K]	3.44
PRCILVDLGEGKICFCCEEFQPAK [D4I]	1.57
PRCMLVDLGEGKICFCCEEFQPAK [D4M]	2.46
PRCELVDLGEGKICFCCEEFQPAK [D4E]	3.27
PRCGLVDLGEGKICFCCEEFQPAK [D4G]	2.26
PRCCLVDLGEGKICFCCEEFQPAK [D4C]	2.74
PRCLLVDLGEGKICFCCEEFQPAK [D4L]	1.67

Variant	protein stability index
PRCQLVDLGEGKICFCCEEFQPAK [D4Q]	3.44
PRCALVDLGEGKICFCCEEFQPAK [D4A]	2.11
PRCDLVDLGEGKICFCTEEFQPAK [C17T]	4.05
PRCDLVDLGEGKICFCFEEFQPAK [C17F]	2.37
PRCDLVDLGEGKICFCAEEFQPAK [C17A]	3.34
PRCDLVDLGEGKICFCDEEFQPAK [C17D]	4.29
PRCDLVDLGEGKICFCLEEFQPAK [C17L]	2.15
PRCDLVDLGEGKICFCPEEFQPAK [C17P]	3.27
PRCDLVDLGEGKICFCCEEFQPAG [K24G]	3.1
PRCDLVDLGEGKICFCCEEFQPAE [K24E]	3.81
PRCDLVDLGEGKICFCCEEFQPAD [K24D]	3.18
PRCDLVDLGEGKICFCCEEFQPAH [K24H]	2.52
PRCDLVDLGEGKICFCCEEFQPAY [K24Y]	2.52
PRCDLVDLGEGKICFCCEEFQPAV [K24V]	3.06
PRCDLVDLGEGKICFCCEEFQPAL [K24L]	3.26
PRCDLVDLGEGKICFCCEEFYPAK [Q21Y]	2.33
PRCDLVDLGEGKICFCCEEFTPAK [Q21T]	3.55
PRCDLVDLGEGKICFCCEEFCPAK [Q21C]	4.17
PRCDLVDLGEGKICFCCEEFLPAK [Q21L]	2.65
PRCDLVDLGEGKICFCCEEFKPAK [Q21K]	2.79
PRCDLVDLGEGKICFCCEEFNPAK [Q21N]	3.14
PRCDLVDLGEGKICFCCEEFWPAK [Q21W]	2.48
